Laboratory results: US5463022A, “N-acetylcarboxymethylchitosan derivatives and process for preparation thereof” (priority 1990, dated 1995)

What was measured:
[1] = tested on: Walker 256; experiment: Concentration of 3H-labeled complexes in tumor (Walker 256) of rats; assay type: in vivo, female Wistar rats; conditions: 10 mg/Kg, carotids, 1440 min
Procedure: The radioactivity of the tissues separated was measured in the following manner. […] The resulting ^3 H2 O was added to a scintillator ("AQUASOL-2", NEN) and then measured by liquid scintillation counter ("LSC-3600", ALOKA). The value of radioactivity so measured was calibrated by the external standard radiation source method.

[2] = Plasma concentration of 3H-labeled complexes in tumor-bearing rats (AUC); assay type: in vivo, female Wistar rats; conditions: 10 mg/Kg; for AUCo-oo in Plasma: carotids; for increase of retention in blood compared with the referential complexes (AUC): ratio to referential complexes
Procedure: Thus, the complexes which were obtained as the final products of Examples 17, 18 and 19 above and had the polyethylene glycol (PEG) contents of 6%, 21% and 43%, respectively, and of which the MTX portions were labelled with ^3 H, were prepared and employed as the ^3 H-labeled test compounds for use as Test Samples 1, 2 and 3. Further, the complexes same as those above-mentioned complexes except that the PEG portion was eliminated therefrom and the MTX portion was ^3 H-labeled, were also prepared and used as referential ^3 H-labeled compounds. In each of the complexes used as Test Samples 1, 2 and 3 and the complexes used as the referential complexes, the peptide chain which was bonded to the 2-amino group of the carboxymethylglucosamine unit of these tested complexes was Gly-Phe-Phe. The PEG portion present in the complexes as Test Samples 1, 2 and 3 was the PEG1 (molecular weight: 5,000) as described in Example 17.
In the following experiment, there were employed such tumor-bearing female Wistar rats which had received the subcutaneous transplantation of cancer cells, Walker 256, to an inguinal part and subsequently had been raised for 6 days. Each solution of the test sample was prepared for administration, by suitably diluting the ^3 H-labeled test sample complex with a solution of a corresponding non-radioactively labeled complex in physiological saline. Using three rats per group, the solution of the test sample was administered into the carotids of rats at a dose of 10 mg/Kg of the complex.
Under ether anesthesia, blood was sampled from the carotid of rats periodically at the ends of 30 minutes, 1 hour, 2 hours, 4 hours and 6 hours after the administration, and the blood was centrifuged to separate the plasma. Upon elapsed time of 24 hours after the administration, blood was collected from rats under ether enesthesia until the rats were sacrificed under exsanguination. Several tissues and organs were separated from the sacrificed rats. After weighing the whole or some parts of the tissues and organs, their radioactivities were measured.
The radioactivity of the tissues separated was measured in the following manner. After each sample of tissue was collected in a combustion cone and was dried, the sample was combusted in an automatic sample-combusting apparatus ("ASC-113", ALOKA). The resulting ^3 H2 O was added to a scintillator ("AQUASOL-2", NEN) and then measured by liquid scintillation counter ("LSC-3600", ALOKA). The value of radioactivity so measured was calibrated by the external standard radiation source method.
The test results are presented in FIG. 29 and FIG. 30 of the accompanying drawings as well as in Table 1 given hereinafter. FIG. 29 is a graph showing time-dependent variations in the concentration of each sample complex present in the plasma as measured up to the end of 24 hours after the administration of the complex. FIG. 30 is a graph showing the distributions of each sample complex present in tissues of the rat body which are expressed as the concentration of the complex in term of the percentages on the basis of the dose of the complex.

[3] = tested on: Sarcoma 180; experiment: Concentration of 3H-labeled compound in cancer tissue (Sarcoma 180) of mice; assay type: in vivo, male ICR mice; conditions: 20 mg/Kg, caudal vein, up to 24 hours, FIG. 19
Text: (§1) The N-acetylcarboxymethylchitosan--Gly-Gly-Gly--MTX complex of Example 2, in which the MTX portion had been ^3 H-labeled, was used as a test sample compound. In addition, an ^3 H-labeled product of the partially N-acetylated carboxymethylchitosan as obtained in the course of the process of Example 1 was employed as a referential sample.
(§2) In the following experiment, there were employed tumor-bearing male ICR mice which had received subcutaneous implantation of Sarcoma 180 and subsequently had been raised for 10 days. The test sample compound was dissolved in physiological saline. Using three mice per group, the solution of the test sample compound was administered at a dose of 20 mg/Kg through the caudal vein. At the ends of 15 minutes, 30 minutes, 1 hour, 2 hours, 6 hours and 24 hours after the administration, the femoral artery and femoral vein of the mice of the respective groups were cut to collect blood samples. The radioactivity of a serum sample, which had been obtained by centrifuging each of the blood samples, and the radioactivity of a cancer tissue taken from the corresponding mouse were measured by the combustion method. In this way, the concentrations of the test sample compound present in the serum and the cancer tissue were evaluated.
(§3) The test results are plotted in FIGS. 18 and 19 of the accompanying drawings. […]

[4] = Serum concentration of 3H-labeled compound after i.v. administration in tumor-bearing mice; assay type: in vivo, male ICR mice; conditions: 20 mg/Kg, caudal vein, 15 minutes to 24 hours, FIG. 18
Text: as §1, §2, §3

Substance | Concentration of Sample in Tumor at end of 24 hrs [1] | AUCo-oo in Plasma [2] | increase of retention in blood compared with the referential complexes (AUC) [2] | concentration in cancer tissue versus simple polysaccharide [3] | retention in blood versus simple polysaccharide referential sample [4]
N-acetylcarboxymethylchitosan-(PEG1)--Gly-Phe-Phe--MTX [Test Sample 2] | 0.35 % of dose/g | 46.20 % of dose · hr/ml | about 3 times | – | –
N-acetylcarboxymethylchitosan-(PEG1)--Gly-Phe-Phe--MTX [Test Sample 1] | 0.22 % of dose/g | 20.85 % of dose · hr/ml | about 1.3 times | – | –
N-acetylcarboxymethylchitosan--Gly-Gly-Gly--MTX [Example 2] | – | – | – | can concentrate in a cancer tissue | comparable to or longer than the retention of the simple polysaccharide
N-acetylcarboxymethylchitosan-(PEG1)--Gly-Phe-Phe--MTX [Test Sample 3] | 0.44 % of dose/g | 45.52 % of dose · hr/ml | about 3 times | – | –
